Assay results from patent publication US20230235058A1.

How the values were obtained:
[1] = target: full length human BTLA expressed on cells (human) (UniProt Q7Z6A9); assay: cell-based or functional assay
L48R (Mus musculus) = assay: flow cytometry, GFP-positive transfected HEK-293T cells, fluorochrome-conjugated antibody at 10 ug/ml, Geo-mean relative to wild type
[2] = target: human BTLA extracellular region / murine CD28 construct with K41E, on HEK-293T cells (human; mouse) (UniProt P31041); assay: as above
[3] = target: human BTLA extracellular region / murine CD28 construct with Y39R, on HEK-293T cells (human; mouse) (UniProt P31041); assay: as above
human BTLA extracellular region / murine CD28 construct with Y39R, on HEK-293T cells (human; mouse), sequence (P31041 other isoform, or with tags, fused parts or gaps Y39R Y39R): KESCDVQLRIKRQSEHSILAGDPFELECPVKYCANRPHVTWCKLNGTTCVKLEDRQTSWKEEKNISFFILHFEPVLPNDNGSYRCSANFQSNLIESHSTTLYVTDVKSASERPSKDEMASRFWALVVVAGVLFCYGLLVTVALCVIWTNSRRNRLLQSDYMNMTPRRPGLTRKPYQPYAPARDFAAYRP

human BTLA extracellular region / murine CD28 construct with K41E, on HEK-293T cells (human; mouse), sequence (P31041 other isoform, or with tags, fused parts or gaps K41E K41E): as the sequence (P31041 other isoform, or with tags, fused parts or gaps Y39R Y39R) above, with R9Y, K11E counted along it

Binder	inhibition of NFkB signal, IC50 [1] [nM]	maximal inhibition of NFkB signal [1] [%]	binding as % of binding to wild-type BTLA (L48R (Mus musculus)) [%]	binding as % of binding to wild-type BTLA [2] [%]	binding as % of binding to wild-type BTLA [3] [%]
22B3 hIgG4PAA (antibody, from another filing, V domains shown) VH: QVQLVQSGAEVKKPGASVKVSCKASGFSLSSYGVSWVRQAPGQGLEWMGAISYDGITYYASWAKSRVTMTRDTSTSTVYMELSSLRSEDTAVYYCARGDYYDDYVYVYALDIWGQGTLVTVSS VL: EIVLTQSPGTLSLSPGERATLSCQASQSISTALAWYQQKPGQAPRLLIYAASTLASGIPDRFSGSGSGTDFTLTISRLEPEDFAVYYCQQGYSSSNLDNVFGGGTKVEIKR	3.8	18	–	–	–
2.8.6 (antibody, V domains shown) VH: QVQLKESGPGLVAPSQSLSITCTVSGFSLTTYGVHWVRQSPGKGLEWLGVMWPGGRTSYNPAPMSRLSISKDNSKSQVFLKMNSLQTDDTAMYYCVRGDYEYDYYAMDYWGQGTSVTVSS VL: QIVLSQSPAILSASPGEKVTMTCRASSSVSYMHWYQQKPGSSPKPWIYATSNLASGVPARFSGSGSGTSYSLTISRMEAEDAATYYCHQWSSNPYTFGGGTKLEIK	–	–	102	91.4	60
11.5.1 (antibody, V domains shown) VH: EVQLQESGPSLVKPSQTLSLTCSVTGDSITSAYWNWIRKFPGNKLEYMGYISYSGSTYFNPSLKSRISITRNTSKNQYYLQLNSVTTEDTATYYCARSHYYGYYFDYWGHGTTLTVSS VL: DIVLTQSPASLAVSLGQRATISCRASETIDSYGDSLMHWYQQKAGQPPKLLIYRASNLESGIPARFSGSGSRTDFTLTINPVEADDVATYYCQQTDEDPYTFGGGTKLEIK	–	–	145	1.8	0.76
